Results from patent US6653533 (PURDUE RESEARCH FOUNDATION, dated 1997).

Target: T1, Pti6 (Solanum lycopersicum (Tomato) …, UniProt O04682 1-248, limits assumed)
T1 construct: Tested as a yeast two-hybrid prey expressed from vector pJG4-5; also called prey of Pti6 (in pJG4-5)
Test: yeast two-hybrid (LEU2 and lacZ reporters), Bicoid bait in pEG202, prey in pJG4-5
Description: Figure 2: FIG. 2 sets forth results of the Experiment described in Example 1 herein. Briefly, EGY48 yeast cells containing a prey of Pti4, Pti5 or Pti6 (in pJG4–5), and a bait of Pto, pto or Bicoid (in pEG202) were grown on galactose Ura⁻His⁻Trp⁻X-Gal medium. The plates were incubated at 30° C. for three days and photographed. Four independent, representative colonies are shown for each bait/prey combination.
Yeast strains carrying the Pto bait and a prey of Pti4, Pti5 or Pti6 grew in the absence of leucine, indicative of the LEU2 reporter gene activation. When grown on X-Gal plates, these yeast cells were blue as a result of the lacZ reporter gene activation. As determined by the intensity of blue color, the strength of interaction of Pto with these three preys is in the order of Pti6>Pti4>Pti5.

T1 sequence (O04682 whole entry): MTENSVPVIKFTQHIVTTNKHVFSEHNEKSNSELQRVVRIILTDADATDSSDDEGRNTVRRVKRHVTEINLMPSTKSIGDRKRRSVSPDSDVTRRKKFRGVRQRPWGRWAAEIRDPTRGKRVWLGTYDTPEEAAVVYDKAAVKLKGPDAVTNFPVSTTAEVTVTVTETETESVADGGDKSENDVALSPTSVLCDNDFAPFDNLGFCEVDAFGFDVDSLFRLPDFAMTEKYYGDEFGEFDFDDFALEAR

B1: Bicoid (other, UniProt P09081 2-160, looked up)
chain: AQPPPDQNFYHHPLPHTHTHPHPHSHPHPHSHPHPHHQHPQLQLPPQFRNPFDLLFDERTGAINYNYIRPYLPNQMPKPDVFPSEELPDSLVMRRPRRTRTTFTSSQIAELEQHFLQGRYLTAPRLADLSAKLALGTAQVKIWFKNRRRRHKIQSDQHK
notes: Control bait expressed from vector pEG202; also called arbitrary bait Bicoid (in pEG202)
binding result: no binding
